For the assay, the target named is Soluble HLA-DR15 (DRA, DRB1*1501) (human). As to the kind of experiment: fluorescence polarisation.

Turning to “Alexa488 labeled derivative of the human myelin basic protein (MBP) 85-99 peptide”, the fold acceleration of peptide binding by DM at pH 4.7 was 15 fold, the fold acceleration of peptide binding by DM at pH 5.6 turned out to be 8 fold, the fold acceleration of peptide binding by J10-1 at pH 4.7 is 15.6 fold and the fold acceleration of peptide binding by J10-1 at pH 5.6 is 28 fold. The substance also registered a fold acceleration of peptide binding by J10-1 at pH 7.1 of 12.6 fold, a fold acceleration of peptide exchange by 10 uM J10-1 of 15.9 fold, a fold acceleration of peptide exchange by 30 uM J10-1 of 66.4 fold and a fold faster rate of binding with DR15/CLIP than with DR15/pMBP as input complex greater than 10 fold. The substance also came in with a half-life of the complex (t1/2) with 100 uM J10 of 4.48 h; a half-life of the complex (t1/2) with 100 uM J10-1 of 1.93 h; a half-life of the complex (t1/2), no small molecule of 35 h.

Source of the values: paper PMC2695398.
